Reference: PMC7138851, “Quantitative assessment of the determinant structural differences between redox-active and inactive glutaredoxins” (Nature Communications, 2020)

What was measured:
Assay in all cases: purified protein, by the assay type
Design in all cases: GSSCys oxidoreductase assay, steady-state kinetics, coupled NADPH consumption at 340 nm, pH 8.0, 25 °C
Conditions in all cases: pH 8.0; 25.0 °C
[1] = substrate: N[C@@H](CCC(=O)N[C@@H](CS)C(=O)NCC(=O)O)C(=O)O
Protocol: (§1) Steady-state kinetics of wild-type and mutant ScGrx7 and HsGrx5^C122S in the GSSCys and [compound left out] assays were determined spectrophotometrically by monitoring the consumption of NADPH at 340 nm and 25 °C using a thermostated Jasco V-650 UV/vis spectrophotometer[11],[19],[25]. Fresh stock solutions of NADPH, GSH, GR, and GSSCys or [compound left out] were prepared in assay buffer containing 0.1 M Tris/HCl, 1 mM EDTA, pH 8.0 before each experiment. Both assays were performed with 0.1 mM NADPH and 1 U/ml ScGR. The following final protein concentrations were used for Y110F/H/A (5–150 nM), D144A/K (10 nM), E147A/K (10 nM), R153A/E (25–50 nM), ScGrx7^WP (20 nM), ScGrx7^loop (up to 1.4 µM), ScGrx7^WP+loop (up 2.6 µM), HsGrx5^C122S (up to 15 µM), HsGrx5^RR (up to 12 µM), HsGrx5^loop (up to 1.6 µM), and HsGrx5^RR+loop (up to 4.0 µM). For the GSSCys assays, GSH was varied between 50 µM and 1.5 mM at fixed GSSCys concentrations (25, 50, 100, and 150 µM). NADPH, GSH, and GR were mixed in assay buffer before Grx was added and a baseline was recorded for 30 s. All GSSCys assays were started by the addition of GSSCys. The absorbance of a reference cuvette containing all components but no Grx was measured in parallel and subtracted from the obtained Grx activity. For the [compound left out] assays, GSH was varied between 100 µM and 2.0 mM at fixed concentrations of [compound left out] (0.18, 0.37, 0.55, and 0.74 mM). NADPH, GSH, and [compound left out] were preincubated in assay buffer for 2 min before GR was added and a baseline was recorded for 30 s. All [compound left out] assays were started by the addition of enzyme. Kinetic data were analyzed in Excel and SigmaPlot 13 by nonlinear and linear regression according to Michaelis–Menten, Lineweaver–Burk, Eadie–Hofstee, and Hanes theory[11],[19],[25]. 13 Supplementary Figure 7 Supplementary Figure 7 | GSSCys assay steady-state kinetics of ScGrx7 wild-type enzyme and D144X mutants. (a) Michaelis-Menten plots of the GSH-dependent reaction velocity at different initial concentrations of GSSCys. […]

[2] = substrate: N[C@@H](CCC(=O)N[C@@H](CSSC[C@H](N)C(=O)O)C(=O)NCC(=O)O)C(=O)O
Protocol: as §1

[3] = substrate: N[C@@H](CCC(=O)N[C@@H](CS)C(=O)NCC(=O)O)C(=O)O; remark: listed apart in the source
Protocol: as §1

[4] = substrate: N[C@@H](CCC(=O)N[C@@H](CS)C(=O)NCC(=O)O)C(=O)O; remark: listed apart in the source
Protocol: as §1

[5] = substrate: N[C@@H](CCC(=O)N[C@@H](CSSC[C@H](N)C(=O)O)C(=O)NCC(=O)O)C(=O)O; remark: listed apart in the source
Protocol: as §1

[6] = substrate: N[C@@H](CCC(=O)N[C@@H](CSSC[C@H](N)C(=O)O)C(=O)NCC(=O)O)C(=O)O; remark: listed apart in the source
Protocol: as §1

B1: ScGrx7 (Saccharomyces cerevisiae S288C) (protein)
chain: SVNESITTHHPDSLVTFDNSGNAPGTHQSVHDTVNTQDKEAEEVDKNSGDAEFDAAAEYNKIMEQSPMIVFSKTGCPYSKKLKALLTNSYTFSPSYYVVELDRHEHTKELQDQIEKVTGRRTVPNVIIGGTSRGGYTEIAELHKNDELLDSFKKWSDGAFTVKANSQSESA
notes: E. coli XL1-Blue, pQE30; N-terminal MRGS(H)6 tag
Protein B1 has a Km [1] of 1479 µM, a kcat [1] of 334 s⁻¹ and a Km [2] of 427 µM. For the same protein, the Km [3] was 244 ± 27.1 µM, the kcat [3] was 68 ± 2.4 s⁻¹ and the kcat/Km [3] was 279000 M⁻¹ s⁻¹. It also gave a Km [4] of 291 ± 17.6 µM, a kcat [4] of 75.2 ± 1.6 s⁻¹ and a kcat/Km [4] of 258000 M⁻¹ s⁻¹. It also gave a Km [5] of 320 ± 91 µM, a kcat [5] of 239 ± 54 s⁻¹ and a kcat/Km [5] of 757000 M⁻¹ s⁻¹. For the same protein, the Km [6] was 155 ± 29.9 µM, the kcat [6] was 114 ± 13 s⁻¹ and the kcat/Km [6] was 735000 M⁻¹ s⁻¹.
